Data on three molecules can be found in patent US12668638B2, “Antibodies that bind EGFR and cMET” (Merus B.V., priority 2017, dated 2026).

In one test the test system is cMET and EGFR. As to conditions: cited from earlier work.
The next test relates to tumor cell line H1975. As to conditions: H1975 expresses the cMET ligand HGF; cited from earlier work.
A further test relates to HCC827 tumor cells. Kind of test: HCC827 xenograft in NSG-hHGFki mice. It counts as in vivo, mouse. An excerpt:
The VH of the cMET variable domain of PB19748 comprises the amino acid sequence of MF8230 (see FIG. 8). […] The VH of the EGFR variable domain of PB19748 comprises the amino acid sequence of MF8233 of FIG. 7. […] In the chosen model, HCC827 tumor cells are engrafted into immunodeficient NOD SCID gamma (NSG) human hepatocyte growth factor knock-in (hHGFki) mice, that express human HGF (ligand for cMET) in place of endogenous mouse HGF. […] They have no T or B cells, lack functional NK cells, and are deficient in cytokine signaling, which allows for better tumor engraftment.
Prior to tumor cell engraftment, the cell cycle of HCC827 cells was boosted by culturing the cells overnight in medium supplemented with 20% fetal bovine serum (FBS) at confluency not exceeding 80%. […] The resulting tumors were measured twice each week using calipers. When the mean tumor volume reached approximately 200 mm^3, the mice were randomized into two groups (4-7 mice per group depending on tumor growth and volume) and drug treatment was started.
Tumor volume was measured twice each week using calipers, and mean tumor volume (and SEM) calculated for each group. When tumor sizes reached 1500 mm^3 mice were euthanized. Treatment was stopped after day 48, and tumor volume in surviving mice was measured up to day 62. […]
As before, tumor volume was monitored and mean tumor volume (and SEM) calculated in each group. All treatments were stopped after day 60, and tumor volume in surviving mice was measured up to day 82.
As before, tumor volume was monitored and mean tumor volume (and SEM) calculated in each group. All treatments were stopped after day 93, and tumor volume in surviving mice was measured up to day […].
In a fourth experiment the effect of a later administration of PB19478 was tested.
On day 51 when the mean tumor volume had clearly passed the 500 mm 3 mark the mice were randomized into two groups. […] As before, tumor volume was monitored and mean tumor volume (and SEM) calculated in each group. All treatments were stopped after day 72.

“JNJ-61186372: bispecific cMETxEGFR antibody produced by controlled Fab-arm exchange (Moores et al 2016)”: the “affinity imbalance, greater affinity for cMET than EGFR” value in the test with cMET and EGFR is recorded as “approximately 40 ×”. Besides, the activity in vivo entry with tumor cell line H1975 was “active in vivo”.

Regarding `C#Cc1cccc(Nc2ncnc3cc(OCCOC)c(OCCOC)cc23)c1` [erlotinib, reference compound], the anti-tumor response result with HCC827 tumor cells (mouse, in vivo) was “able to induce an anti-tumor response”.

B1: LY2875358: humanized monoclonal cMET antibody emibetuzumab (antibody, chains of the INN, looked up, V domains shown)
VH: QVQLVQSGAEVKKPGASVKVSCKASGYTFTDYYMHWVRQAPGQGLEWMGRVNPNRRGTTYNQKFEGRVTMTTDTSTSTAYMELRSLRSDDTAVYYCARANWLDYWGQGTTVTVSS
VL: DIQMTQSPSSLSASVGDRVTITCSVSSSVSSIYLHWYQQKPGKAPKLLIYSTSNLASGVPSRFSGSGSGTDFTLTISSLQPEDFATYYCQVYSGYPLTFGGGTKVEIK
On to B1, for which the anti-tumor response entry is “less effective than PB8532” with HCC827 tumor cells (antibody 25 mg/kg weekly i.p. plus erlotinib 6 mg/kg daily gavage); “less effective” in the test on HCC827 tumor cells (antibody 25 mg/kg weekly i.p. plus erlotinib 6 mg/kg daily gavage, listed as LY3875358); “less effective than PB8532” in the test with HCC827 tumor cells (antibody 25 mg/kg weekly i.p. plus vehicle (without erlotinib)); “less effective” in the test with HCC827 tumor cells (antibody 25 mg/kg weekly i.p. plus vehicle (without erlotinib), listed as LY3875358).
